Experimental findings from patent US20080226630A1 are described below.

Assay in all cases: cell-based or functional assay
Substrate in experiment [1]: F protein of RSV strain 18537 (human respiratory syncytial virus strain 18537 (subtype B)) (UniProt P13843)
Substrate in experiment [2]: F protein of RSV strain B1 (human respiratory syncytial virus strain B1 (subtype B)) (UniProt O36634)
Substrate in experiment [3]: F protein of RSV strain Long (human respiratory syncytial virus strain Long (subtype A)) (UniProt P12568)

Sequence of F protein of RSV strain B1 (human respiratory syncytial virus strain B1 (subtype B)) (O36634 26-574): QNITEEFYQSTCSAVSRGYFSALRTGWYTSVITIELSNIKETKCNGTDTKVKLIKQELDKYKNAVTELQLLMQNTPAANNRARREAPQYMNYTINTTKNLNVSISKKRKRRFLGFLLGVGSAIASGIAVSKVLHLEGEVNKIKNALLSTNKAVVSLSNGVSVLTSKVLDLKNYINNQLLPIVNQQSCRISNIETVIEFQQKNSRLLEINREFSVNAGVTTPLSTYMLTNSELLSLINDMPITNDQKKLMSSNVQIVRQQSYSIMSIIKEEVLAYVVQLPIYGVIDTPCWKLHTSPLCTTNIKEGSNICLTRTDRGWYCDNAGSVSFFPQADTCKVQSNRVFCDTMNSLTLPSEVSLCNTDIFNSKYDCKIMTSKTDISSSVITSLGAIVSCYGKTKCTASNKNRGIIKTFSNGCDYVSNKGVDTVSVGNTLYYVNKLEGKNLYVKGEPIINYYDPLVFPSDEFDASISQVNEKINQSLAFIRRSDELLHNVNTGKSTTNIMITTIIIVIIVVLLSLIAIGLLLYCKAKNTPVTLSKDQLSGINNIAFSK
Sequence of F protein of RSV strain 18537 (human respiratory syncytial virus strain 18537 (subtype B)) (P13843 26-574): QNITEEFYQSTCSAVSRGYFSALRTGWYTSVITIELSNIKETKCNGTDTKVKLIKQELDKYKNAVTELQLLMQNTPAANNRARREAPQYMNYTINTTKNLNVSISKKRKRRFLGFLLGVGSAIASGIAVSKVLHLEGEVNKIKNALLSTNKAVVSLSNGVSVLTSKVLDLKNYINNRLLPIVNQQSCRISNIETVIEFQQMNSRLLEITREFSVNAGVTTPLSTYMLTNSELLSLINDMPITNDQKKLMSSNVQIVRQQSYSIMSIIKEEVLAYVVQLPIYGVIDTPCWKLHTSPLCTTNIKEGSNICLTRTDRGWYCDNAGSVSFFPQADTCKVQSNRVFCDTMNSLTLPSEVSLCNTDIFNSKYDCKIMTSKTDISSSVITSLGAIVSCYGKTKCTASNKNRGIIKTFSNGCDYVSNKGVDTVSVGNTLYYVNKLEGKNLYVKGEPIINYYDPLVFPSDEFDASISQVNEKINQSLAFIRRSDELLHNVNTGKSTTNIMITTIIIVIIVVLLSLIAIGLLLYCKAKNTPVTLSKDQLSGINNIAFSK
Sequence of F protein of RSV strain Long (human respiratory syncytial virus strain Long (subtype A)) (P12568 26-574): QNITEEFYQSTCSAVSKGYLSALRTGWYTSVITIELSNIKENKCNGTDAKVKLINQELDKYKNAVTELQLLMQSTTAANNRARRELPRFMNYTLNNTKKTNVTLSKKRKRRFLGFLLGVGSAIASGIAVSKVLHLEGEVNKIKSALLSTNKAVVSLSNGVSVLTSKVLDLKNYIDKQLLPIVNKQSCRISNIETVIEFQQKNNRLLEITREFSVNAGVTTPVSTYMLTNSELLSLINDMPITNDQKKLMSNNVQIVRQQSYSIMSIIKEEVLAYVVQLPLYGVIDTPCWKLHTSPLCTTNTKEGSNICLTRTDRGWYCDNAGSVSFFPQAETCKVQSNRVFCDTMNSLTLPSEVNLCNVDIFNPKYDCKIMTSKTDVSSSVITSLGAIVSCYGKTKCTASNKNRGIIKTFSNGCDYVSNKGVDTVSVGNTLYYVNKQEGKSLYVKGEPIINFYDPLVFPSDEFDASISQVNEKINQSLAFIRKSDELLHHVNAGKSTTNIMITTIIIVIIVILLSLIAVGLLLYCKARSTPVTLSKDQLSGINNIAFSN

B1: antibody 831 (clone 831) (antibody, human IgG1, kappa, V domains shown)
VH: QVQLVQSGAEVKKPGASVKVSCKASANIFTYAMHWVRQAPGQRLEWMGWINVGNGQTKYSQRFQGRVTITRDTSATTAYMELSTLRSEDTAVYYCARRASQYGEVYGNYFDYWGQGTLVTVSS
VL: DIQMTQSPSTLSASVGDRLTITCRASQNIYNWLAWYQQKPGKAPKLLIYDASTLESGVPSRFSGSGSGTEFTLTISSLQPDDFATYYCQQYNSLSPTFGQGTKVEIKR
On to B1, for which the EC50, PRNT with complement, RSV 18537 in experiment [1] turned out to be 0.72 µg/mL. The EC50, PRNT with complement, RSV B1 in experiment [2] came to 1.66 µg/mL. Moreover, the EC50, PRNT with complement, RSV Long in experiment [3] came to 0.08 µg/mL.

B2: antibody 827 (clone 827) (antibody, human IgG1, kappa, V domains shown)
VH: QVQLVQSGAEVKKPGASVKVSCRVSGHTFTALSKHWMRQGPGGGLEWMGFFDPEDGDTGYAQKFQGRVTMTEDTATGTAYMELSSLTSDDTAVYYCATVAAAGNFDNWGQGTLVTVSS
VL: DIQMTQSPSSLAASVGDRVTITCRASQFISSYLHWYQQRPGKAPKLLMYAASTLQSGVPSRFSGSGSGTDFTLTISSLQPEDFATYYCQQSYTNPYTFGQGTKLEIKR
On to B2, for which the EC50, PRNT with complement, RSV 18537 in experiment [1] was found to be 0.1 µg/mL. Further, the EC50, PRNT with complement, RSV Long in experiment [3] is 0.16 µg/mL.

B3: antibody 880 (clone 880) (antibody, human IgG1, kappa, V domains shown)
VH: QITLKESGPTLVRPTQTLTLTCTFSGFSLSTSKLGVGWIRQPPGKALEWLALVDWDDDRRYRPSLKSRLTVTKDTSKNQVVLTMTNMDPVDTATYYCAHSAYYTSSGYYLQYFHHWGPGTLVTVSS
VL: DIQMTQSPSSLAASVGDRVTITCRASQTIASYVNWYQQKPGKAPNLLIYAASSLQSGVPSRFSGSGSGTDFTLTISSLQPEDFASYFCQQSYSFPYTFGQGTKLDIKR
Regarding B3, the EC50, PRNT with complement, RSV 18537 in experiment [1] worked out at 0.95 µg/mL. The EC50, PRNT with complement, RSV B1 in experiment [2] is 0.4 µg/mL. The EC50, PRNT with complement, RSV Long in experiment [3] came to 0.38 µg/mL.

B4: antibody 894 (clone 894) (antibody, human IgG1, kappa, V domains shown)
VH: QVQLVESGGGVVQPGKSLRLSCAASGFRFSDYGMHWVRQAPSKGLEWVAVIWHDGSNIRYADSVRGRFSISRDNSKNTLYLQMNSMRADDTAFYYCARVPFQIWSGLYFDHWGQGTLVTVSS
VL: EIVMTQSPATLSVSPGERATLSCRASQSVGNNLAWYQQRPGQAPRLLIYGASTRATGIPARFSGSGSGTEFTLTISSLQSEDFAVYYCQQYDKWPETFGQGTKVDIKR
Regarding B4, in experiment [1], the EC50, PRNT with complement, RSV 18537 came to 0.07 µg/mL. The EC50, PRNT with complement, RSV Long in experiment [3] came to 0.08 µg/mL.

B5: antibody 800 (clone 800) (antibody, human IgG1, kappa, V domains shown)
VH: QVQLVESGGAVVQPGRSLRLSCEVSGFSFSDYGMNWVRQGPGKGLEWVAVIWHDGSNKNYLDSVKGRFTVSRDNSKNTLFLQMNSLRAEDTAVYYCARTPYEFWSGYYFDFWGQGTLVTVSS
VL: AIQLTQSPSSLSASVGDRVTLTCRASQGITDSLAWYQQKPGKAPKVLLYAASRLESGVPSRFSGRGSGTDFTLTISSLQPEDFATYYCQQYSKSPATFGPGTKVEIRR
For the molecule B5, in experiment [2], the EC50, PRNT with complement, RSV B1 amounted to 0.16 µg/mL. Further, the EC50, PRNT with complement, RSV Long in experiment [3] is 0.15 µg/mL.

B6: antibody 818 (clone 818) (antibody, human IgG1, kappa, V domains shown)
VH: QVTLRESGPAVVKPTETLTLTCAFSGFSLNAGRVGVSWIRQPPGQAPEWLARIDWDDDKAFRTSLKTRLSISKDSSKNQVVLTLSNMDPADTATYYCARTQVFASGGYYLYYLDHWGQGTLVTVSS
VL: DIQMTQSPSSLSASVGDRVTITCRASQTIASYVNWYQQKPGRAPSLLIYAASNLQSGVPPRFSGSGSGTDFTLTISGLQPDDFATYYCQQSYSYRALTFGGGTKVEIKR
For the molecule B6, the EC50, PRNT with complement, RSV 18537 in experiment [1] worked out at 0.21 µg/mL. Moreover, in experiment [3], the EC50, PRNT with complement, RSV Long turned out to be 1.86 µg/mL and the EC50, PRNT with complement, RSV Long (new determination) is 0.15 µg/mL.
